Experimental data taken from IntAct's records for PubMed 25327252.

B1: E3 ubiquitin-protein ligase RNF146 (Homo sapiens), Q9NTX7 (parent)
chain: MMAGCGEIDHSINMLPTNRKANESCSNTAPSLTVPECAICLQTCVHPVSLPCKHVFCYLCVKGASWLGKRCALCRQEIPEDFLDKPTLLSPEELKAASRGNGEYAWYYEGRNGWWQYDERTSRELEDAFSKGKKNTEMLIAGFLYVADLENMVQYRRNEHGRRRKIKRDIIDIPKKGVAGLRLDCDANTVNLARESSADGADSVSAQSGASVQPLVSSVRPLTSVDGQLTSPATPSPDASTSLEDSFAHLQLSGDNTAERSHRGEGEEDHESPSSGRVPAPDTSIEETESDASSDSEDVSAVVAQHSLTQQRLLVSNANQTVPDRSDRSGTDRSVAGGGTVSVSVRSRRPDGQCTVTEV

Variants of: B1
Details: with tnks1_human TNKS

Variant | effect of a mutation on the interaction
G200V;G338V;G339V | decreasing interaction strength
G200V | decreasing interaction strength

Variants of: B1
Details: with tnks1_human TNKS
Remark: another data set of the same source

Variant | effect of a mutation on the interaction
G338V;G339V | decreasing interaction strength
